Measurements reported in PMC11331095, “Structural basis for DNA recognition by a viral genome-packaging machine”.
Values belong to the molecule of their own block, whether it stands above or below them.

Columns and labels:
[1] = biological target: HK97 small terminase (Escherichia coli bacteriophage HK97); assay: cryo-EM structure; small terminase with 31 bp DNA (cos 7-37), 1:2 protein:DNA, 25 mM Tris-HCl pH 7.5, 200 mM NaCl, 10 mM MgCl2; complex purified on S200 10/30; 3.0 Å
[2] = biological target: HK97 small terminase Arg5 to alanine mutant (Escherichia coli bacteriophage HK97); assay: SEC; mutant proteins on a Superdex S200 10/30 column in 25 mM Tris-HCl, pH 7.5, 1 M NaCl (SI Appendix, Fig. S12)
[3] = biological target: HK97 small terminase Arg7 to alanine mutant (Escherichia coli bacteriophage HK97); assay: as above
[4] = biological target: HK97 small terminase Arg107 to alanine mutant (Escherichia coli bacteriophage HK97); assay: as above
[5] = biological target: HK97 small terminase Arg114 to alanine mutant (Escherichia coli bacteriophage HK97); assay: as above
[6] = biological target: HK97 small terminase Arg128 to alanine mutant (Escherichia coli bacteriophage HK97); assay: as above
[7] = biological target: HK97 small terminase Lys4 to alanine mutant (Escherichia coli bacteriophage HK97); assay: as above
[8] = biological target: HK97 small terminase Lys100 to alanine mutant (Escherichia coli bacteriophage HK97); assay: as above
[9] = biological target: HK97 small terminase triple mutant (Lys4, Arg5 and Arg7 to alanine) (Escherichia coli bacteriophage HK97); assay: as above
small terminase WT [10] = biological target: T1, small terminase WT (Escherichia coli bacteriophage HK97, UniProt Q9MBW4 1-161); assay: MST; settings: rough upper limit of Kapp; mixed specific and nonspecific binding; 10 mM MgCl2; EMSA: 25 mM Tris-HCl pH 7.5, 200 mM NaCl, 10 mM MgCl2, RT 2-3 h, gel at 4 C (DNA 2 uM boundary mapping, 0.5 uM DNA mutants, 20 nM Alexa647 or 40 nM Cy5 DNA) …
T1 sequence: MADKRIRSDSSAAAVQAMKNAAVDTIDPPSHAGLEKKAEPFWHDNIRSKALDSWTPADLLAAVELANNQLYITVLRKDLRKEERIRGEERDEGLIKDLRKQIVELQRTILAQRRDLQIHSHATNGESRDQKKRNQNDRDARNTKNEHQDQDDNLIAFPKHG

small terminase WT [11] = biological target: T1, small terminase WT; assay: cryoEM; 3.0 A; 28 of 31 bp modelled; DNA threaded through channel; EMSA: 25 mM Tris-HCl pH 7.5, 200 mM NaCl, 10 mM MgCl2, RT 2-3 h, gel at 4 C (DNA 2 uM boundary mapping, 0.5 uM DNA mutants, 20 nM Alexa647 or 40 nM Cy5 DNA); MST: same buffer + 0.005-0.01% Tween 20, 12 nM DNA, 20 C; settings: protein: recombinant; tags: His-SUMO tag removed; chain copies: 9
small terminase WT [12] = biological target: T1, small terminase WT; assay: EMSA; binding abolished; up to 1 uM protein; EMSA: 25 mM Tris-HCl pH 7.5, 200 mM NaCl, 10 mM MgCl2, RT 2-3 h, gel at 4 C (DNA 2 uM boundary mapping, 0.5 uM DNA mutants, 20 nM Alexa647 or 40 nM Cy5 DNA); MST: same buffer + 0.005-0.01% Tween 20, 12 nM DNA, 20 C; settings: protein: recombinant; tags: His-SUMO tag removed; chain copies: 9
small terminase WT [13] = biological target: T1, small terminase WT; assay: EMSA; up to 1 uM protein; EMSA: 25 mM Tris-HCl pH 7.5, 200 mM NaCl, 10 mM MgCl2, RT 2-3 h, gel at 4 C (DNA 2 uM boundary mapping, 0.5 uM DNA mutants, 20 nM Alexa647 or 40 nM Cy5 DNA); MST: same buffer + 0.005-0.01% Tween 20, 12 nM DNA, 20 C; settings: protein: recombinant; tags: His-SUMO tag removed; chain copies: 9
small terminase WT [14] = biological target: T1, small terminase WT; assay: EMSA; EMSA: 25 mM Tris-HCl pH 7.5, 200 mM NaCl, 10 mM MgCl2, RT 2-3 h, gel at 4 C (DNA 2 uM boundary mapping, 0.5 uM DNA mutants, 20 nM Alexa647 or 40 nM Cy5 DNA); MST: same buffer + 0.005-0.01% Tween 20, 12 nM DNA, 20 C; settings: protein: recombinant; tags: His-SUMO tag removed; chain copies: 9
small terminase WT [15] = biological target: T1, small terminase WT; assay: EMSA; little influence on binding; EMSA: 25 mM Tris-HCl pH 7.5, 200 mM NaCl, 10 mM MgCl2, RT 2-3 h, gel at 4 C (DNA 2 uM boundary mapping, 0.5 uM DNA mutants, 20 nM Alexa647 or 40 nM Cy5 DNA); MST: same buffer + 0.005-0.01% Tween 20, 12 nM DNA, 20 C; settings: protein: recombinant; tags: His-SUMO tag removed; chain copies: 9

stoichiometry N [1]: 9
Molecule: HK97 small terminase

stoichiometry N [2]: 9
Molecule: HK97 small terminase Arg5 to alanine mutant (natural protein)

stoichiometry N [3]: 9
Molecule: HK97 small terminase Arg7 to alanine mutant (natural protein)

stoichiometry N [4]: 9
Molecule: HK97 small terminase Arg107 to alanine mutant (natural protein)

stoichiometry N [5]: 9
Molecule: HK97 small terminase Arg114 to alanine mutant (natural protein)

stoichiometry N [6]: 9
Molecule: HK97 small terminase Arg128 to alanine mutant (natural protein)

stoichiometry N [7]: 9
Molecule: HK97 small terminase Lys4 to alanine mutant (natural protein)

stoichiometry N [8]: 9
Molecule: HK97 small terminase Lys100 to alanine mutant (natural protein)

stoichiometry N [9]: 9
Molecule: HK97 small terminase triple mutant (Lys4, Arg5 and Arg7 to alanine) (natural protein)

Molecule: cos -20-80 (100 bp)
Kd (small terminase WT [10]): < 100 nM

B1: cos 7-37 (31 bp) (dsDNA)
DNA 1: ATTTAACGCTAACCCGATTTTTTTAGTTTTA
DNA 2: TAAAACTAAAAAAATCGGGTTAGCGTTAAAT
binding result (small terminase WT [11]): binds

B2: positions 26-27 G:C (dsDNA)
DNA 1: ATTTAACGCTAACCCGATTCCTTTAGTTTTA
DNA 2: TAAAACTAAAGGAATCGGGTTAGCGTTAAAT
binding result (small terminase WT [12]): no binding

B3: position 21 C:G to T:A (dsDNA)
DNA 1: ATTTAACGCTAACCTGATTTTTTTAGTTTTA
DNA 2: TAAAACTAAAAAAATCAGGTTAGCGTTAAAT
binding result (small terminase WT [13]): no binding

B4: 25 bp cos oligo (dsDNA)
DNA 1: TAACGCTAACCCGATTTTTTTAGTT
DNA 2: AACTAAAAAAATCGGGTTAGCGTTA
binding result (small terminase WT [14]): binds

B5: 21 bp cos oligo (dsDNA)
DNA 1: ACGCTAACCCGATTTTTTTAG
DNA 2: CTAAAAAAATCGGGTTAGCGT
binding result (small terminase WT [14]): binds

B6: positions 24-29 A:T swapped (dsDNA)
DNA 1: ATTTAACGCTAACCCGAAAAAAATAGTTTTA
DNA 2: TAAAACTATTTTTTTCGGGTTAGCGTTAAAT
binding result (small terminase WT [15]): binds
